Source: PMC13676896 (2026)

Biological target: T1, MYO10 motor domain 1-741 (Homo sapiens, UniProt Q9HD67)
T1 chain: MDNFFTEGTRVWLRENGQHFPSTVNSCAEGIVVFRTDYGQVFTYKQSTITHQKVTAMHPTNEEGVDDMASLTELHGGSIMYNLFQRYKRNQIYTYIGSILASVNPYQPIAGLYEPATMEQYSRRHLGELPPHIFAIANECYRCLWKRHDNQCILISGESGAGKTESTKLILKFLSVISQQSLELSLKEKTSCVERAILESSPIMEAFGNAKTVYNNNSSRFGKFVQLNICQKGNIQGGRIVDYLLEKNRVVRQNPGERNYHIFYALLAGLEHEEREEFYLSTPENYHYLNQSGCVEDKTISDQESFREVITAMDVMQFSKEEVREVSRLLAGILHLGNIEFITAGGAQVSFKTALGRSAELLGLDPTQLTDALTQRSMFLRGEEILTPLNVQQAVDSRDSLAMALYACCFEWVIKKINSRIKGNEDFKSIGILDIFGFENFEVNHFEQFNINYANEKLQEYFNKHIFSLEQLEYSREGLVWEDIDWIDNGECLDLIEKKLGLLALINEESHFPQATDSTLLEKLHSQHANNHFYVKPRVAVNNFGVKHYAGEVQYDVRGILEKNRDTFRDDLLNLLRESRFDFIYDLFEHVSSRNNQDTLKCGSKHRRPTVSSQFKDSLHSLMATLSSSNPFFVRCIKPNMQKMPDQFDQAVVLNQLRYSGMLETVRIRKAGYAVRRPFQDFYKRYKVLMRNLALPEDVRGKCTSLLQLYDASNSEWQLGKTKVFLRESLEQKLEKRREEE
Experiment: MST

Kd: 1160 nM
B1: CCT8 (protein)
chain: ALHVPKAPGFAQMLKEGAKHFSGLEEAVYRNIQACKELAQTTRTAYGPNGMNKMVINHLEKLFVTNDAATILRELEVQHPAAKMIVMASHMQEQEVGDGTNFVLVFAGALLELAEELLRIGLSVSEVIEGYEIACRKAHEILPNLVCCSAKNLRDIDEVSSLLRTSIMSKQYGNEVFLAKLIAQACVSIFPDSGHFNVDNIRVCKILGSGISSSSVLHGMVFKKETEGDVTSVKDAKIAVYSCPFDGMITETKGTVLIKTAEELMNFSKGEENLMDAQVKAIADTGANVVVTGGKVADMALHYANKYNIMLVRLNSKWDLRRLCKTVGATALPRLTPPVLEEMGHCDSVYLSEVGDTQVVVFKHEKEDGAISTIVLRGSTDNLMDDIERAVDDGVNTFKVLTRDKRLVPGGGATEIELAKQITSYGETCPGLEQYAIKKFAEAFEAIPRALAENSGVKANEVISKLYAVHQEGNKNVGLDIEAEVPAVKDMLEAGILDTYLGKYWAIKLATNAAVTVLRVDQIIMAKPAGGPKPPSGKKDWDDDQND
